Measurements reported in PMC5779714, “Metallochaperone UreG serves as a new target for design of urease inhibitor: A novel strategy for development of antimicrobials” (PLoS Biology, 2018).

Experiments:
[1] = design: method as in PMID 22179820; settings: cited from earlier work
[2] = target: the molecule itself; assay: SEC; gel filtration of apo-UreE alone, with or without three molar equivalents of Bi(III) (little effect on the dimer)
[3] = target: the molecule itself; assay: SEC; Superdex 200 10/300 GL; Ni-loaded UreG (UreG with NiSO4 1x, GTP 10x, MgSO4 1 mM) with 1 mM KHCO3; run with or without two molar equivalents of Bi(III) (as BiNTA), which lowered the dimer peak and gave a high molecular weight oligomer

O=C([O-])CN(CC(=O)[O-])CC(=O)[O-].[Bi+3] [BiNTA, Bi nitrilotriacetic acid]
log Ka of Bi-NTA [1]: 17.55

B1: Helicobacter pylori urease accessory protein UreE (natural protein)
chain: MIIERLVGNLRDLNPLDFSVDHVDLEWFETRKKIARFKTRQGKDIAIRLKDAPKLGLSQGDILFKEEKEIIAVNILDSEVIHIQAKSVAEVAKICYEIGNRHAALYYGESQFEFKTPFEKPTLALLEKLGVQNRVLSSKLDSKERLTVSMPHSEPNFKVSLASDFKVVVK
notes: also called apo-UreE
stoichiometry N [2]: 2

B2: Helicobacter pylori urease accessory protein UreG (natural protein)
chain: MVKIGVCGPVGSGKTALIEALTRHMSKDYDMAVITNDIYTKEDAEFMCKNSVMPRERIIGVETGGCPHTAIREDASMNLEAVEEMHGRFPNLELLLIESGGDNLSATFNPELADFTIFVIDVAEGDKIPRKGGPGITRSDLLVINKIDLAPYVGADLKVMERDSKKMRGEKPFIFTNIRAKEGLDDVIAWIKRNALLED
notes: also called HpUreG; apo-UreG; source: E. coli BL21(DE3), purified (HisTrap Ni-NTA, thrombin cleavage, EDTA, Superdex 75)
stoichiometry N [3]: 2
